Test results published in publication PMC4148193, “Chromatin Insulator Factors Involved in Long-Range DNA Interactions and Their Role in the Folding of the Drosophila Genome” (PLoS Genetics, 2014).

Experiments:
Chromator = target: T1, Chromator (Drosophila, UniProt Q86BS3 1-926); assay: competition; unlabeled DNAS vs 2.5 nM Cy3B-DNAS, 638 nM Chromator; FA/FCS: 30 mM Tris/HCl pH 7.5, 100 mM NaCl, 20 uM ZnSO4, 5 mM mercaptoethanol, 0.01 mg/ml BSA, 0.004% Tween20, 2.5 nM DNA; EMSA: 150 mM NaCl, 30 mM Tris/HCl pH; details: protein: recombinant; tags: N-term 6xHis; blunt
T1 sequence: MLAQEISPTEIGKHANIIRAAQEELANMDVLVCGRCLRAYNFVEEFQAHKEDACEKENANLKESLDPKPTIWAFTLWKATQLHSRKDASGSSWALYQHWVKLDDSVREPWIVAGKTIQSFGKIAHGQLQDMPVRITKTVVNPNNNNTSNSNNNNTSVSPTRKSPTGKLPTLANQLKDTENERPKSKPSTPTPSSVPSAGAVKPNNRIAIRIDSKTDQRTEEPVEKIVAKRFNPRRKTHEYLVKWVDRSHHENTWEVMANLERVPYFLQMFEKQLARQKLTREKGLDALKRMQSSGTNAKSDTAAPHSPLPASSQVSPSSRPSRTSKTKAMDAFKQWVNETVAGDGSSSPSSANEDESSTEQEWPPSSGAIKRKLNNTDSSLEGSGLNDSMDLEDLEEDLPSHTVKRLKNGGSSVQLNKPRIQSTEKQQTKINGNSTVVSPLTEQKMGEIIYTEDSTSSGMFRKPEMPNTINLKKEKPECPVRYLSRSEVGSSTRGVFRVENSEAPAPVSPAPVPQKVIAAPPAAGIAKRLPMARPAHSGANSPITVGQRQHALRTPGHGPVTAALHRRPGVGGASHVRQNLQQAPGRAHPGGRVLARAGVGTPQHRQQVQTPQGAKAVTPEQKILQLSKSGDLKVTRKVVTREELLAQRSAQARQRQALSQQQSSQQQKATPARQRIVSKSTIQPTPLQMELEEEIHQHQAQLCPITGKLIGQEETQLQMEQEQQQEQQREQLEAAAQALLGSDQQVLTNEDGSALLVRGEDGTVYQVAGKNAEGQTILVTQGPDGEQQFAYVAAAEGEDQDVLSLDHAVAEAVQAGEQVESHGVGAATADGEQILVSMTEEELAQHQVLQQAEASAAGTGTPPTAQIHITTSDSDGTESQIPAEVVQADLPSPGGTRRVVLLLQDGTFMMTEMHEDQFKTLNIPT

BEAF32 (BEAF32B) = target: T2, BEAF32 (BEAF32B) (Drosophila, UniProt Q94513 1-282); assay: competition; unlabeled DNAS vs 2.5 nM Cy3B-DNAS, 100 nM BEAF32; FA/FCS: 30 mM Tris/HCl pH 7.5, 100 mM NaCl, 20 uM ZnSO4, 5 mM mercaptoethanol, 0.01 mg/ml BSA, 0.004% Tween20, 2.5 nM DNA; EMSA: 150 mM NaCl, 30 mM Tris/HCl pH; details: protein: recombinant; tags: N-term MBP; C-term 6xHis; blunt
T2 sequence: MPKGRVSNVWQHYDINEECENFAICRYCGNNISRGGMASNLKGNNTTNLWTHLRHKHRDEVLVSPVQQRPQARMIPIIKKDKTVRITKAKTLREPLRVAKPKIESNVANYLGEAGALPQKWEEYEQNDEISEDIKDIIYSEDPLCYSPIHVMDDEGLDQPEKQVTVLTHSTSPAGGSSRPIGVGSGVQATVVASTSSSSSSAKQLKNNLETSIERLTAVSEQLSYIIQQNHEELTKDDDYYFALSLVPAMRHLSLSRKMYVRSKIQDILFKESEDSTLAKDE

[1] = target: T3, BEAF32 (BEAF32B);Chromator (Drosophila;Drosophila, UniProt Q94513;Q86BS3 1-282;1-926, |); assay: FCS/PIE-FCCS; 800 nM BEAF32, 100 nM Chromator; cross-correlation 13±4%, 47±14% of complexes bridged; FA/FCS: 30 mM Tris/HCl pH 7.5, 100 mM NaCl, 20 uM ZnSO4, 5 mM mercaptoethanol, 0.01 mg/ml BSA, 0.004% Tween20, 2.5 nM DNA; EMSA: 150 mM NaCl, 30 mM Tris/HCl pH; details: protein: recombinant;recombinant; tags: N-term MBP; C-term 6xHis;N-term 6xHis; blunt
T3 sequence 1: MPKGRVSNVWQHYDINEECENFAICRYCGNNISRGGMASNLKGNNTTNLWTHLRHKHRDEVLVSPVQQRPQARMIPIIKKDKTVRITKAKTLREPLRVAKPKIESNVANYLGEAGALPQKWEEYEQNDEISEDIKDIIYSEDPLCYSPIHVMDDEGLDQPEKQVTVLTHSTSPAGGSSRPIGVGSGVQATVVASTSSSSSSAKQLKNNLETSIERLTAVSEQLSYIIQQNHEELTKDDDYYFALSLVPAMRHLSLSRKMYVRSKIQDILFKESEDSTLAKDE
T3 sequence 2: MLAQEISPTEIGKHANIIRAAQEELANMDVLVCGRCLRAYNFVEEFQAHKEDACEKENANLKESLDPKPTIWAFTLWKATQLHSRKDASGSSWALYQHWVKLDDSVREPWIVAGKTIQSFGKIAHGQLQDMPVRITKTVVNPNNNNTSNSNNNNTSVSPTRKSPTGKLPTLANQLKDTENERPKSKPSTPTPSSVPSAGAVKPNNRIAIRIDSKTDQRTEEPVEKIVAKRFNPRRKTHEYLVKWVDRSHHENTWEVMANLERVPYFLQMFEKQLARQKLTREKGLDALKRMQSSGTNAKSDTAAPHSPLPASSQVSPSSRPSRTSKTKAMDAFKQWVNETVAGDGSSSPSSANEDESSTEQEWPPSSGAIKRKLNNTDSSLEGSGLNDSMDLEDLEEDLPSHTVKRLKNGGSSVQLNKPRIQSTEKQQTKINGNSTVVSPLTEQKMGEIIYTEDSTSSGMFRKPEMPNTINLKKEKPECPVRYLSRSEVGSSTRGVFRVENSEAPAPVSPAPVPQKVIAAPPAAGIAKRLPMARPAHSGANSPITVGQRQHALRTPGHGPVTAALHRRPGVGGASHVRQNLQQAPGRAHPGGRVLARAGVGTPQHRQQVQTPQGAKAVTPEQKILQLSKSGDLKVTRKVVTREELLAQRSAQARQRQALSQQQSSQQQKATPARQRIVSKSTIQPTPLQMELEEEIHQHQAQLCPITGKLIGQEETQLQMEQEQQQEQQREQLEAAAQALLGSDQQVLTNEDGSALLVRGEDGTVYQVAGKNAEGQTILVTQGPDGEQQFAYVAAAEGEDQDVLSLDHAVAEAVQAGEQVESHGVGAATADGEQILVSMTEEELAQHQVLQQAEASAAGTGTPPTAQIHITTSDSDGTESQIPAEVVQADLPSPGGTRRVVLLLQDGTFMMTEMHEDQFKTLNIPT

B1: DNAS (dsDNA)
DNA 1: AGAAGTCAGCGCGATAGCATCGATATTTTCGTGACACGCTTGTCATCCGATAGGTAGT
DNA 2: ACTACCTATCGGATGACAAGCGTGTCACGAAAATATCGATGCTATCGCGCTGACTTCT
Ki (Chromator): 514 ± 360 nM | Ki (BEAF32 (BEAF32B)): 20 ± 4 nM | binding result [1]: binds
